Results on four molecules are retold here after patent publication US20240294635A1 (CHIA TAI TIANQING PHARMACEUTICAL GROUP, published 2024).

One assay deals with T1, CD47 on Jurkat cells (UniProt Q08722 19-323, limits assumed).
T1 construct: whole, on cells; Jurkat is a human T cell line
Kind of assay: flow cytometry on Jurkat cells, competition with Human-SIRPα-mFc. A general note: A flow cytometer gives signals particle by particle.

Assay [1] has as its target T2, human CD47 protein, His Tag (ACRObiosystems, Cat. No. CD7-H5227) (human, UniProt Q08722 19-139).
T2 construct: bought reagent; also called CD47-His; hCD47-His Tag; not shown: His tag
Kind of assay: ELISA, CD47-His coated, competition with Human-SIRPα-mFc. (ELISA stands for enzyme-linked immunosorbent assay.)

Assay [2] addresses T3, CD47 on the red cell surface (Homo sapiens (Human), UniProt Q08722 19-323). Briefly: flow cytometry on fixed red cells, antibody 1 µg/mL.
Experimental: (§1) Anticoagulated blood was collected and well mixed with an equal amount of normal saline. The mixture was centrifuged at 2000 rpm/min for 5 min, and the supernatant was removed. […] In the first two washings, the mixture was centrifuged at 2000 rpm/min for 5 min, and in the last washing, the mixture was centrifuged at 2000 rpm/min for 10 min, and the supernatant was removed.
Assay [3] has as its target T4, human CD47 protein on CHO-K1-CD47 cells (human, UniProt Q08722 19-323).
T4 construct: whole, on cells; also called CHO-K1 cells expressing human CD47 protein
Kind of assay: cell binding, CHO-K1-CD47 cells, high content imaging.
Experimental: A cell binding assay of anti-CD47 antibodies (chimeric or humanized) was performed based on the binding to a CHO-K1 cell line stably expressing CD47. CHO-K1-CD47 cells (CHO-K1 cells expressing human CD47 protein) were added to each well of a 96-well plate (Eppendorf, Cat. No. C030730.119) at 1.2×10⁴ cells per well and incubated with anti-CD47 antibodies (20 μg/mL, 1:4 dilution in PBS) at room temperature for 1-2 h. […] The cells were incubated at room temperature for 30 min. The cells were washed three times with PBS buffer. A nuclear dye Hoechst (Sigma, Cat. No. B2261) was diluted with PBS buffer at a dilution ratio of 1:500 and then added to each well at 100 μL/well for staining for 10 min. The cells were washed 3 times with PBS and analyzed using a high content screening system (manufacturer: PerkinElmer; model: Operetta).

The target in assay [4] is T3, CD47 on the red cell surface. Briefly: flow cytometry on fixed red cells, antibody 10 µg/mL.
Experimental: as §1
Assay [5] addresses T2, human CD47 protein, His Tag …. Briefly: ELISA, plate coated with CD47-His.
Experimental: An ELISA binding assay was performed based on human CD47 protein and anti-CD47 chimeric antibodies or anti-CD47 humanized antibodies. […] The wells were aspirated, and non-specific binding sites were blocked by adding 100 L/well of a blocking solution (PBS with 1% (w/v) bovine serum albumin (BSA, Sigma, Cat. No. B2064-100G)) and incubating the plate at 37° C. for 1 h. After the 96-well plate was washed three times with a washing buffer (PBS with 0.01% (w/v) Tween 20 (Sigma, Cat. No. P9416-100ML)), 100 μL/well of 1:4 serial dilutions (from 30 g/mL) of anti-CD47 antibodies (see Table 3 for chimeric antibodies, and see Table 4 for humanized antibodies) in blocking solution were added, and the plate was incubated at room temperature for 2 h. […] After the 96-well plate was washed, 100 μL/well of a substrate solution TMB (TIANGEN, Cat. No. PA107-01) was added, and the 96-well plate was incubated at room temperature for 10 min. 100 μL/well of a stop solution (1 M H₂SO₄) was added to stop the reaction. Colorimetric signals were generated and read at 450 nm using a multifunctional microplate reader (manufacturer: PerkinElmer; model: EnVision). Data were analyzed using GraphPad Prism5, and EC₅₀ was calculated.
Assay [6] has as its target T5, cynomolgus/rhesus macaque CD47 protein, His Tag (ACRObiosystems, Cat. No. CD7-C52H1) (cynomolgus monkey (cynomolgus/rhesus …, UniProt A0A2K5X523 19-141)).
T5 construct: bought reagent; also called Cynomolgus monkey CD47 protein
Briefly: Biacore SPR, 25 C, antibody captured on CM5 chip. On the technique in general: In SPR one partner is held on a chip, and binding of the other changes the refractive index at the surface.

For assay [7], the target named is T2, human CD47 protein, His Tag …. Kind of assay: Biacore SPR, 25 C, antibody captured on CM5 chip.
Another assay deals with CD47 on HL60 cells (UniProt Q08722 19-323, limits assumed). Briefly: cell-based or functional assay.
In assay [8] the target is T2, human CD47 protein, His Tag …. Briefly: Biacore SPR, 25 C, antibody captured on CM5 chip; Biacore at 25 C; antibody captured on the chip, soluble CD47-His as analyte.
The target is the same in assay [9]. Kind of assay: ELISA, CD47-His coated, competition with Human-SIRPα-mFc; Blocking ELISA; CD47-His coated on plate, SIRPα-mFc bound first, antibody from 20 µg/mL, mouse Fc detected.
Experimental: The plate was let stand at 2-8° C. overnight. The wells were aspirated to remove the coating buffer and blocked with 100 μL/well of a blocking solution (PBS with 1% (w/v) bovine serum albumin (BSA, Sigma, Cat. No. B2064-100G)) by incubation at 37° C. for 1 h. The 96-well plate was washed with a washing buffer (PBS with 0.01% (w/v) Tween 20 (Sigma, Cat. No. P9416-100ML)). […] After the 96-well plate was washed with PBS washing buffer, anti-CD47 chimeric antibodies or anti-CD47 humanized antibodies (see Table 8 for chimeric antibodies, and see Table 9 for humanized antibodies) were added. 4-fold dilution was performed with PBS buffer from a starting concentration of 20 μg/mL, with 8 gradients obtained. The plate was incubated at room temperature for 1.5 h. […] After the 96-well plate was washed with PBS buffer, 100 μL/well of a substrate solution TMB (TIANGEN, Cat. No. PA107-01) was added, and the plate was incubated at room temperature for color development for 10 min. 100 μL/well of 1 M H₂SO₄ was added to stop the reaction. Colorimetric signals were generated and read at 450 nm using a multifunctional microplate reader (manufacturer: PerkinElmer; model: EnVision). Data were analyzed using GraphPad Prism5, and EC₅₀ was calculated.

T5 sequence (A0A2K5X523 entry or part of it limits assumed): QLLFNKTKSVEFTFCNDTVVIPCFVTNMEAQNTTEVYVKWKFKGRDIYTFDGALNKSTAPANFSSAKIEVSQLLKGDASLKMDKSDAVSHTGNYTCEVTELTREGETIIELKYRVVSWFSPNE
Experimental for CD47 on Jurkat cells: The plate was incubated at room temperature for 1 h. After the plate was washed twice with PBS buffer, 100 μL of anti-CD47 chimeric antibodies (Table 7) was added to each well. 4-fold dilution was performed with PBS buffer from a starting concentration of 20 μg/mL, with 8 gradients obtained. The plate was incubated at room temperature for 1-2 h. […] The plate was incubated at room temperature for 1 h and washed 3 times with PBS buffer.

B1: Xi14A9 (antibody, human IgG4 S228P, kappa, V domains shown)
VH: EVQLQQSGAEVARPGASVKLSCTVSGFNIEDDYIEWVKQRPEQGLEWIGRIDPANDKTKYAPKFQDKATITGDTSSNTAYLQLSSLTSEDTAVYYCTRPGLRRYYSMDYWGQGTSVTVSS
VL: NIVLTQSPKSMSMSVGERVTLSCKASENVVSYVSWYQQKPEQSPKLLIYGASNRYTGVPDRFIGSGSSTDFTLIISSFQPEDLADYHCGQSYSYPLTFGAGTKLELKR
notes: mouse variable regions on human IgG4 (EU S228P) and human kappa constant regions; also called chimeric 14A9 antibody
In general, IC50 refers to the concentration that gives 50% inhibition. As usually defined, the EC50 is the concentration that produces a half-maximal response. What is called Kd is the free concentration of one partner at which half of the binding sites on the other are occupied at equilibrium, for simple one-to-one binding. As to B1, the values for the IC50 (in the assay with CD47 on Jurkat cells; in assay [1]) were 1.28 µg/mL and 0.444 µg/mL, respectively. In addition, the MFI came to 26500 MFI in assay [2] and 32800 MFI in assay [4]. Also, the EC50 in assay [3] stood at 0.541 µg/mL; in assay [5], 0.273 µg/mL. In addition, the values for the Kd in [6] and in assay [7] were 1.58 nM and 2.35 nM, respectively. In the assay with CD47 on HL60 cells, the “rate of phagocytosis, antibody 1 µg/mL” value was determined as 54.2%. For the same molecule, the “rate of phagocytosis, antibody 10 µg/mL” value in the assay with CD47 on HL60 cells came out at 44.7%.

B2: Xi3F10 (antibody, human IgG4 S228P, kappa, V domains shown)
VH: EVQLQQSVAELMKPGASVKIYCKATGYTFSRYWIEWVKQRPGHGLEWIGEFIPGSDTTNFNEKFKGKATFTAEISSNTAYMQLSSLTSEDSAVYFCARGGLRRMDYWGQGTSVTVSS
VL: DIVMTQTPAIMSASPGEKVTMTCRASSSVSSTYLHWYQQKSGASPKLWIYTTSTLASGVPARFSGSGSGTSYSLTISSVEAEDAATYYCQQFSDSTWTFGGGTKLEIKR
notes: mouse variable regions on human IgG4 (EU S228P) and human kappa constant regions; also called chimeric 3F10 antibody
On to B2, for which the IC50 came to 0.358 µg/mL in the assay with CD47 on Jurkat cells and 7.91 µg/mL in [1]. The MFI is 36100 MFI in [2] and 61800 MFI in [4]. For the same molecule, the EC50 in assay [3] is 19.8 µg/mL; in assay [5], 1.11 µg/mL. For the same molecule, the equilibrium dissociation constant (Kd) in assay [6] was 1.04 nM; in assay [7], 0.767 nM. Moreover, the “rate of phagocytosis, antibody 1 µg/mL” value in the assay with CD47 on HL60 cells was 65.7%. For the same molecule, the “rate of phagocytosis, antibody 10 µg/mL” value with CD47 on HL60 cells came to 59.8%.

B3: Xi2H8 (antibody, human IgG4 S228P, kappa, V domains shown)
VH: QVQLKESGPGLVAPSQSLSITCTVSGFSLTNYGVHWVRQPPGKGLEWLGIIWAGGSTNYNSALMSRLSISKDNSKSQVFLKMNSLQTDDTAMYYCARDDYASMDYWGQGTSVTVSS
VL: DAFMTQTPLSLPVSLGDQASISCRSSQSLVHSNGNTYLHWYLQKPGQSPKLLIYKVSNRFSGVPDRFSGSGSGTDFTLKISRVEAEDLGVYFCSQSTHVPYTLGGGTKLEIKR
notes: mouse variable regions on human IgG4 (EU S228P) and human kappa constant regions; also called chimeric 2H8 antibody
Consider B3, for which the IC50 in the assay with CD47 on Jurkat cells came to 27 µg/mL; in assay [9], 0.00468 µg/mL. The Kd in assay [8] came out at 0.35 nM; in [6], 1.25 nM. Also, the figures for the MFI in assay [2] and in assay [4] were 952 MFI and 5300 MFI, respectively. Besides, the “rate of phagocytosis, antibody 1 µg/mL” value with CD47 on HL60 cells came out at 7.1%. Further, the “rate of phagocytosis, antibody 10 µg/mL” value with CD47 on HL60 cells was found to be 3.5%.

B4: Xi16E5 (antibody, human IgG4 S228P, kappa, V domains shown)
VH: EVQLQQSGPELKKPGETVKISCKASGYTFTNYGMNWVKQVPGKGLKWMGWINTNTGEPTYAEEFKGRFAFSLETSARTAFLQINNLKNEDTATYFCTRFSHLRGPMDYWGQGASVTVSS
VL: DAVMTQTPLSLPVSLGDQASISCRSSQSLVHSNGYTYLHWYLQKPGQSPKLLIYKVSNRFSGVPDRFSGSGSGTDFTLKISRLEAEDLGVYFCSQSTHVPPTFGGGTKLEIKR
notes: mouse variable regions on human IgG4 (EU S228P) and human kappa constant regions; also called chimeric 16E5 antibody
Regarding B4, the IC50 with CD47 on Jurkat cells was found to be 4.86 µg/mL; in [1] it was 0.946 µg/mL. Further, the MFI in [2] is 1310 MFI; in [4], 3320 MFI. The concentration giving a half-maximal response (EC50) came to 2.03 µg/mL in assay [3] and 0.0879 µg/mL in [5]. In addition, the Kd in [6] is 2.92 nM; in assay [7], 9.06 nM. For the same molecule, the “rate of phagocytosis, antibody 1 µg/mL” value with CD47 on HL60 cells turned out to be 11.5%. Besides, the “rate of phagocytosis, antibody 10 µg/mL” value with CD47 on HL60 cells came out at 28.8%.
